# According to patent US20140057807A1 (UNIVERSITY OF CHICAGO, published 2014):
# Numbering of substitutions follows the chain as printed.
# T1: human Abl SH2 domain (human, UniProt P00519 112-232, limits assumed)
# T1 construct: domain: SH2 domain; poly-histidine tagged in selection; tag cleaved for SPR and crystals; also called Ab1SH2; SH2 domain of Abl kinase
# T1 sequence (looked up): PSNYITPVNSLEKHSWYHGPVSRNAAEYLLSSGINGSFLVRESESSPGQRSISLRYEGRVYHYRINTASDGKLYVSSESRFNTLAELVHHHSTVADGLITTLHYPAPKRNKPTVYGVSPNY
# B1: SEQ ID NO 30 (designed binder)
# chain: VSSVPTKLEVVAATPTSLLISWDAPAVTVDFYFITYGETGGNSPVQEFTVPGSKSTATISGLSPGVDYTITVYAWDNWDDYYYSPISINYRT
# B2: SEQ ID NO 32 (designed binder)
# chain: VSSVPTKLEVVAATPTSLLISWDAPAVTVDLYFITYGETGGNSPVQEFTVPGSKSTATISGLSPGVDYTITVYAWYYGYYGPQYTSPISINYRT
# B3: SEQ ID NO 36 (designed binder)
# chain: VSSVPTKLEVVAATPTSLLISWDAPAVTVVYYFITYGETGGNSPVQEFTVPGSKSTATISGLSPGVDYTITVYAWSYELTGDYLQQFSPISINYRT
# B4: SEQ ID NO 39 (designed binder)
# chain: VSSVPTKLEVVAATPTSLLISWDAPAVTVDFYVITYGETGSYGSYPQAFEVPGSKSTATISGLSPGVDYTITVYTESEGYISSSPISINYRT
# B5: SEQ ID NO 31 (designed binder)
# chain: VSSVPTKLEVVAATPTSLLISWDAPAVTVVFYVITYGETGSYSGWQEFEVPGSKSTATISGLSPGVDYTITVYAYYYQNPESYYSPISINYRT
# B6: SEQ ID NO 35 (designed binder)
# chain: VSSVPTKLEVVAATPTSLLISWDAPAVTVDYYVITYGETGAFGSGQEFEVPGSKSTATISGLSPGVDYTITVYAKWMYSYMYNPISINYRT
# B7: SEQ ID NO 37 (designed binder)
# chain: VSSVPTKLEVVAATPTSLLISWDAPAVTVVYYNITYGETGGNSPVQEFTVPGSKSTATISGLSPGVDYTITVYAWYEYGGYMEIDSPISINYRT
# B8: SEQ ID NO 41 (designed binder)
# chain: B7 chain with V30D, N33Y, E77W, Y78N, G79D, G80Y, E83S, I84S, D85M
# B9: SEQ ID NO 38 (designed binder)
# chain: VSSVPTKLEVVAATPTSLLISWDAPAVTVDYYVITYGETGVPYYGWQEFEVPGSKSTATISGLSPGVDYTITVYAYPGSNWFYDWWSPISINYRT
# B10: SEQ ID NO 42 (designed binder)
# chain: VSSVPTKLEVVAATPTSLLISWDAPAVTVDYYVITYGETGGNSPVQEFEVPGSKSTATISGLSPGVDYTITVYATYGDAYWHYYYSPISINYRT
# B11: SEQ ID NO 18 (designed binder)
# chain: B1 chain with F31Y, F33V, D76S, N77W, W78K, D79Y, D80W, Y82H, Y83G
# B12: SEQ ID NO 17 (designed binder)
# chain: VSSVPTKLEVVAATPTSLLISWDAPAVTVDYYVITYGETGWYSPPQEFTVPGSKSTATISGLSPGVDYTITVYAWNWSAGLQSPISINYRT
# B13: SEQ ID NO 15 (designed binder)
# chain: VSSVPTKLEVVAATPTSLLISWDAPAVTVDHYVITYGETGAHYYYFQEFEVPGSKSTATISGLSPGVDYTITVYAVSHGTDGNKLYFFSPISINYRT
# B14: SEQ ID NO 14 (designed binder)
# chain: VSSVPTKLEVVAATPTSLLISWDAPAVTVDHYHITYGETGGSWSGYQEFTVPGSKSTATISGLSPGVDYTITVYANSSWYWYNPISINYRT
# B15: SEQ ID NO 13 (designed binder)
# chain: VSSVPTKLEVVAATPTSLLISWDAPAVTVDYYVITYGETGGGYYSFQAFEVPGSKSTATISGLSPGVDYTITVYAFWPDDYYYGGSEYSPISINYRT
# B16: SEQ ID NO 12 (designed binder)
# chain: VSSVPTKLEVVAATPTSLLISWDAPAVTVDHYNITYGETGAFWHYVQAFTVPGSKSTATISGLSPGVDYTITVYAEWDQYVVGSPISINYRT
# Target: T1, human Abl SH2 domain
# Experiment: phage display selection hit, BL1 library
row,binding result,Binder
1,binds,B1
2,binds,B2
3,binds,B3
4,binds,B4
5,binds,B5
6,binds,B6
7,binds,B7
8,binds,B8
9,binds,B9
10,binds,B10

# Target: human ubiquitin (human, UniProt P0CG48 1-76)
# Experiment: phage display selection hit, BL1 library
row,binding result,Binder
1,binds,B11
2,binds,B12
3,binds,B13
4,binds,B14
5,binds,B15
6,binds,B16
